Data as given in patent US20220332804A1 (CSL INNOVATION, published 2022).
Positions count from the first letter of the chain named.

Assays:
Test in all cases: SPR; KD relative to WT C2;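 also: biacore SPR at 37 °C, anti-C2 mAbs captured on an anti-human IgG chip, alanine or serine C2 surface mutants tested, KD from 1:1 fit compared with wild-type C2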
[1] = target: T1, human C2 G432A (human, UniProt P06681 21-752)
T1 sequence: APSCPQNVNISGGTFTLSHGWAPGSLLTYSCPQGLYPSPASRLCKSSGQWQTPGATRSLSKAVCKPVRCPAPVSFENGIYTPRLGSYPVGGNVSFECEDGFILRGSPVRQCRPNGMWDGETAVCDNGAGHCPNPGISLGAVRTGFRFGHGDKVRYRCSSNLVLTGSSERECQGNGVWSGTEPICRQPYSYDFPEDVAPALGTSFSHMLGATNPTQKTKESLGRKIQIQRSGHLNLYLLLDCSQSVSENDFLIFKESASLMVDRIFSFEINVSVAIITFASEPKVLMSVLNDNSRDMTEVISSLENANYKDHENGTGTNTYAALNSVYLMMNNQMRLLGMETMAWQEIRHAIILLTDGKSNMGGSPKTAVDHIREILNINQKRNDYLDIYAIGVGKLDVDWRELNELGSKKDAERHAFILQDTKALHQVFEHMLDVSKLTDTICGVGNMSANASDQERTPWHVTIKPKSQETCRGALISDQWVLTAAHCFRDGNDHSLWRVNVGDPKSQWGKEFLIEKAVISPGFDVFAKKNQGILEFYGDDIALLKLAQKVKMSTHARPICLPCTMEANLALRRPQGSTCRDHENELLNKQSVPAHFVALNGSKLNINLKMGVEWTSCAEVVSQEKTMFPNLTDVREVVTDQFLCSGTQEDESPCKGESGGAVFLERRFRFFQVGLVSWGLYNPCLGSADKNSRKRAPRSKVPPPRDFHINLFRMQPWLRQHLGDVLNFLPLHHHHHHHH

[2] = target: T2, human C2 S473A (human, UniProt P06681 21-752)
T2 sequence: T1 sequence with A412G, S453A

[3] = target: T3, human C2 H446A (human, UniProt P06681 21-752)
T3 sequence: T1 sequence with A412G, H426A

[4] = target: T4, human C2 D404A (human, UniProt P06681 21-752)
T4 sequence: T1 sequence with D384A, A412G

B1: RF16-214 (antibody, V domains shown)
VH: EVQLLESGGGLVQPGGSLRLSCAASGFTFSWYQMMWVRQAPGKGLEWVSRIYPSGGGTAYADSVKGRFTISRDNSKNTLYLQMNSLRAEDTAVYYCARDAGYGDNWGQGTLVTVSS
VL: QSALTQPPSVSVSPGQTASITCSGDKLGEKYASWYQQKAGQSPVMVIYQDRKRPSGIPERFSGSNSGNTATLTISGTQAMDEADYYCQAWDTRAVVFGGGTKLTVLG
Work on B1 yielded a Fold diff [1] of 1 fold, a Fold diff [2] of 2 fold and a Fold diff [3] of 5 fold. For the same binder, the Fold diff [4] was 3 fold.
